# Values of other authors in article PMC7596073.
# Values joined by “and” are separate entries in the source; they are usually repeats but may differ in a detail not shown here. Identical values can stand only once.
# Biological target: IL-18BP (Homo sapiens) (UniProt O95998)
# Sequence (O95998 31-194): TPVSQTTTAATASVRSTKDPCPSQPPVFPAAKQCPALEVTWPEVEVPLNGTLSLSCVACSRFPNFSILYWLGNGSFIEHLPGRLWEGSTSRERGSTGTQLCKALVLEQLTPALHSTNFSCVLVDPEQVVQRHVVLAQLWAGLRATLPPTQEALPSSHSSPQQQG
# Sequence of IL-18 (Q14116 37-193): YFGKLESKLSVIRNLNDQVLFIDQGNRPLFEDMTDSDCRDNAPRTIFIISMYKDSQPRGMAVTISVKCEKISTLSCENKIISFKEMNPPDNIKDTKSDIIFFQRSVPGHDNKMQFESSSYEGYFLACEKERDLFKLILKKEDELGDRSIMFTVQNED
substance,measurement,value
IL-18 (from UniProt Q14116),Kd,40 pM and 400 pM
